Tests used:
Assay in all cases: far-Western, overlay or dot blot; SDS-PAGE immunoblot: purified recombinant Der p 7 proteins on PVDF membrane, incubated with hybridoma culture supernatant (1:10 in TTBS, 1% skim milk) 1 h at room temperature; band intensities quantified; percent reduction against the wild type
Details in all cases: one partner purified
[1] = target: T1, Der p 7 (wild type, recombinant) (Dermatophagoides pteronyssinus, UniProt P49273)
T1 construct: Mite allergen Der p 7, Dermatophagoides pteronyssinus, GenBank U37044; Expression and purification are described for the mutants (pQE80, E. coli JM109, Ni-NTA); also called wild-type Der p 7; source: purified recombinant protein
T1 sequence (P49273 18-215): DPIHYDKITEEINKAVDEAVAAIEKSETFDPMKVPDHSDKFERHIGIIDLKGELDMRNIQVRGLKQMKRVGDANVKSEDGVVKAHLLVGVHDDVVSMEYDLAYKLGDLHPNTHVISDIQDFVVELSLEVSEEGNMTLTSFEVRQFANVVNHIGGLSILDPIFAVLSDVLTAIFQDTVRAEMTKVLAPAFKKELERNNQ

Der p 7 S156A mutant = target: T2, Der p 7 S156A mutant (Dermatophagoides pteronyssinus, UniProt P49273, S156A)
T2 construct: Mite allergen Der p 7, Dermatophagoides pteronyssinus, GenBank U37044; source: E. coli JM109, purified (Ni-NTA)
T2 sequence (P49273 18-215 S156A): as the sequence (P49273 18-215) above, with S139A counted along it

Der p 7 L158A mutant = target: T3, Der p 7 L158A mutant (Dermatophagoides pteronyssinus, UniProt P49273, L158A)
T3 construct: Mite allergen Der p 7, Dermatophagoides pteronyssinus, GenBank U37044; source: E. coli JM109, purified (Ni-NTA)
T3 sequence (P49273 18-215 L175A): as the sequence (P49273 18-215) above, with L158A counted along it

Der p 7 D159A mutant = target: T4, Der p 7 D159A mutant (Dermatophagoides pteronyssinus, UniProt P49273, D159A)
T4 construct: Mite allergen Der p 7, Dermatophagoides pteronyssinus, GenBank U37044; source: E. coli JM109, purified (Ni-NTA)
T4 sequence (P49273 18-215 D176A): as the sequence (P49273 18-215) above, with D159A counted along it

Der p 7 P160A mutant = target: T5, Der p 7 P160A mutant (Dermatophagoides pteronyssinus, UniProt P49273, P160A)
T5 construct: Mite allergen Der p 7, Dermatophagoides pteronyssinus, GenBank U37044; also called P106A (as printed once); source: E. coli JM109, purified (Ni-NTA)
T5 sequence (P49273 18-215 P177A): as the sequence (P49273 18-215) above, with P160A counted along it

B1: MoAb WH9 (antibody, V domains shown)
VH: QVQLEQSGAELAKVGASVKMSCKASGYTFTNYWMHWVKQRPGQGLEWIGYINPSIGYIDYNQKFKDKATLTVDKSSSTAYMQLSSLTSEDSAVYYCAGVEYGSSLGDYFDDWGQGTTL
VL: not shown
notes: variable domain of the heavy chain of WH9; the first nine amino acids derive from the PCR primer; variable domain of the light chain of WH9; the first eight amino acids derive from the PCR primer; also called mouse monoclonal antibody WH9; source: hybridoma WH9, culture supernatant
With B1 the binding result [1] was “binds”, the “mean percentage of reduction in immunoreactivity against the wild type” value (“mean percentage of reduction” for short) (Der p 7 S156A mutant) was 18% and the “mean percentage of reduction” value (Der p 7 L158A mutant) was 87%. The “mean percentage of reduction” value (Der p 7 D159A mutant) was 81% and the “mean percentage of reduction” value (Der p 7 P160A mutant) was 87%.

Reference: paper PMC3734125, “Epitope Mapping and In Silico Characterization of Interactions between Der p 7 Allergen and MoAb WH9” (PLoS ONE, 2013)
